Laboratory results reported in patent EP4755403A1 (Jiangsu Hengrui Pharmaceuticals Co., Ltd., dated 2025).

Key:
[1] = biological target: T1, human PSMA-His (ACRO, PSA-H52H3) (human, UniProt Q04609 44-750); assay: SPR (Biacore T200), antibody captured on Protein A chip, antigen flowed over, 1:1 model
T1 construct: Commercial protein; not shown: His tag

[2] = biological target: T2, monkey PSMA-His (ACRO, PSA-C5247) (monkey (cynomolgus), UniProt A0A2K5VNZ0 44-750); assay: as above
T2 construct: Commercial protein; also called cynomolgus monkey PSMA; not shown: His tag

[3] = biological target: T3, human PSMA (prostate specific membrane antigen) on tumor cells (human, UniProt Q04609 1-750); assay: flow cytometry on 22RV1 cells, FITC anti-human IgG secondary
T3 construct: whole, on cells; also called PSMA antigen; LNCaP (+++)

[4] = biological target: T4, mouse PSMA-His (ACRO, PSA-M5245) (mouse, UniProt O35409 45-752); assay: SPR (Biacore T200), antibody captured on Protein A chip, antigen flowed over
T4 construct: Commercial protein; not shown: His tag

[5] = biological target: T3, human PSMA (prostate specific membrane …); assay: cell-based or functional assay
[6] = biological target: T3, human PSMA (prostate specific membrane …); assay: flow cytometry on LNCaP cells, FITC anti-human IgG secondary
[7] = biological target: T3, human PSMA (prostate specific membrane …); assay: as above; remark: listed apart in the source
[8] = biological target: T3, human PSMA (prostate specific membrane …); assay: flow cytometry on 22RV1 cells, FITC anti-human IgG secondary; remark: listed apart in the source
[9] = biological target: T3, human PSMA (prostate specific membrane …); assay: cell-based or functional assay; remark: listed apart in the source

T3 sequence (Q04609 whole entry): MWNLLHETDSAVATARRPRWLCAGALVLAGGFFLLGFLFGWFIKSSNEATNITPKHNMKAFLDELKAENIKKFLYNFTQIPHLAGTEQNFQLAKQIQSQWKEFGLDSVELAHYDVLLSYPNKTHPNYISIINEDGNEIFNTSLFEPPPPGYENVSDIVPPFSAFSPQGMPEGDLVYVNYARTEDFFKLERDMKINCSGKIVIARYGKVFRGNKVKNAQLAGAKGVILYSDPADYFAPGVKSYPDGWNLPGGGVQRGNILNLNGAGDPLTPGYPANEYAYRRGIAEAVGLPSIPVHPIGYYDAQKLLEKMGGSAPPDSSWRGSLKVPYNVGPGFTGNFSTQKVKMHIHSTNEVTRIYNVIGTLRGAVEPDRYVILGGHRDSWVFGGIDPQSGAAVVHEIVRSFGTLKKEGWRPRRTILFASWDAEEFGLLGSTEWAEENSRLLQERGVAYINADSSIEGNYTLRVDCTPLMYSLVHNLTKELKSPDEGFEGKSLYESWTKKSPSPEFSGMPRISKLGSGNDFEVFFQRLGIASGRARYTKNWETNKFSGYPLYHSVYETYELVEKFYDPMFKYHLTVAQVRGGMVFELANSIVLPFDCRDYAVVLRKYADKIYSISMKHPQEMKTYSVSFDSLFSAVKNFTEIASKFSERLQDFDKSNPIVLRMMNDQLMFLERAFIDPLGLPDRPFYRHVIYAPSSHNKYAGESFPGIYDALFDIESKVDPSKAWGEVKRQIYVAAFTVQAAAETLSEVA
T1 sequence (Q04609 44-750 limits assumed): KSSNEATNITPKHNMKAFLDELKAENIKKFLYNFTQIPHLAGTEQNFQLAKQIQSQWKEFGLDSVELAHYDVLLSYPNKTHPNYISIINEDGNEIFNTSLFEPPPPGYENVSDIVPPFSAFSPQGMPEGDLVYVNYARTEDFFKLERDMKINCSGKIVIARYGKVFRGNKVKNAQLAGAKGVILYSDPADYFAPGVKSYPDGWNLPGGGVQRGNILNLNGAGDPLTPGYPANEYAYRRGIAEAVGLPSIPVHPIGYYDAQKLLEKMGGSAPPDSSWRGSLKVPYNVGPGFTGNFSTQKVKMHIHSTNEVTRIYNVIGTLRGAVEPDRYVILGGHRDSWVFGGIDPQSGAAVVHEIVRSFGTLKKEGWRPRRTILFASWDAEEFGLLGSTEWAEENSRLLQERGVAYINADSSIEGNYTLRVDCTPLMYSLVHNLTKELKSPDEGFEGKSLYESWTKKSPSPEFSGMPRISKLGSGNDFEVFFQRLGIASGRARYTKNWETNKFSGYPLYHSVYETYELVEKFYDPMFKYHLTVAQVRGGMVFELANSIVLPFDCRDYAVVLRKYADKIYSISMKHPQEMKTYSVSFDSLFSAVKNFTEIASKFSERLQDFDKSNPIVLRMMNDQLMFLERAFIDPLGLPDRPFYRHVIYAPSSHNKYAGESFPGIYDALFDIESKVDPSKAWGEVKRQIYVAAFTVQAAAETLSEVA
T4 sequence (O35409 45-752): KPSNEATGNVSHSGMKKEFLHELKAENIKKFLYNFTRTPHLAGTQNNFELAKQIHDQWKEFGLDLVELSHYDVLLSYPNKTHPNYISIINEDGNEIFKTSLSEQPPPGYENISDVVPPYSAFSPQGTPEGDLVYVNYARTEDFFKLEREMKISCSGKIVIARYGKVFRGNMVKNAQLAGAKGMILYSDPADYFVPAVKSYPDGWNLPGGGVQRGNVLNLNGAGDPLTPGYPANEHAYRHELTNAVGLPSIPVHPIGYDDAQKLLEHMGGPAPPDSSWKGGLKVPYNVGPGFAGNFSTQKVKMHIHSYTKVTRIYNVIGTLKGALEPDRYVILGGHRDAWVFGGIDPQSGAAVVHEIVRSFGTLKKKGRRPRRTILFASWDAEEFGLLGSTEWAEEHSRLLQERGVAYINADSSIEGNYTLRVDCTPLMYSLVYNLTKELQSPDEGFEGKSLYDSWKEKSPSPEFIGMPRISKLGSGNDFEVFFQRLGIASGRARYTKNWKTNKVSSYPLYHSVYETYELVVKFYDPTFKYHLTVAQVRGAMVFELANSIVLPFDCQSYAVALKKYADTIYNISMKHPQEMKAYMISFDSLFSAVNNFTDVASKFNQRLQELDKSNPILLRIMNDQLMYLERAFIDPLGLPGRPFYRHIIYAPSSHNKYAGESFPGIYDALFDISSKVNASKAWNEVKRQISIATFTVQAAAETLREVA

Binder | Kd [1] [nM] | koff [1] [s⁻¹] | kon [1] [M⁻¹ s⁻¹] | Kd [2] [nM] | EC50 [3] [nM] | binding result [4] | DT3C endocytosis assay on LNCaP cells, IC50 [5] [nM] | EC50 [6] [nM] | EC50 [7] [nM] | EC50 [8] [nM] | killing of 22RV1 (+) cells, CellTiter-Glo, IC50 [9] [nM] | killing of LNCaP (+++) cells, CellTiter-Glo, IC50 [9] [nM]
P19 (19L2H2) (antibody, human IgG1, kappa, V domains shown, Humanized anti-PSMA antibody from mouse mAb19-1 (hu19-1 VH2 + hu19-1 VL2), human IgG1 / kappa constant regions; also called antibody P19) VH: EVKLVESGGGLVQPGGSLRLSCAASGFTFSDYYMAWVRQAPGKGLEWVANINYDGSSTYYLDSLKSRFTISRDNAKNSLYLQMNSLRAEDTAVYYCARGGDYWDAMDYWGQGTTVTVSS VL: DIQMTQSPSSLSASVGDRVTITCRASQDISKYLNWYQQKPGKAPKLLIYYTSSLHSGVPSRFSGSGSGTDYTLTISSLQPEDFATYYCQQGNRLPRTFGGGTKVEIKR | 1.3 | 7.92e-05 | 61100 | 5.08 | 0.637 | no binding | 0.25 | 0.305 | 2.09 | 0.0719 | – | –
ADC-2 (P19-9-A, n = 7.41) (antibody, human IgG1, kappa, V domains shown, drug-linker 9-A coupled via sulfhydryl groups on cysteine; mean n = 7.41 per antibody (positions not stated)) VH: EVKLVESGGGLVQPGGSLRLSCAASGFTFSDYYMAWVRQAPGKGLEWVANINYDGSSTYYLDSLKSRFTISRDNAKNSLYLQMNSLRAEDTAVYYCARGGDYWDAMDYWGQGTTVTVSS VL: DIQMTQSPSSLSASVGDRVTITCRASQDISKYLNWYQQKPGKAPKLLIYYTSSLHSGVPSRFSGSGSGTDYTLTISSLQPEDFATYYCQQGNRLPRTFGGGTKVEIKR | – | – | – | – | – | – | – | 0.307 | – | 0.0812 | 6.92 | 2.83
ADC-1 (P19-9-A, n = 5.55) (antibody, human IgG1, kappa, V domains shown, drug-linker 9-A coupled via sulfhydryl groups on cysteine; mean n = 5.55 per antibody (positions not stated)) VH: EVKLVESGGGLVQPGGSLRLSCAASGFTFSDYYMAWVRQAPGKGLEWVANINYDGSSTYYLDSLKSRFTISRDNAKNSLYLQMNSLRAEDTAVYYCARGGDYWDAMDYWGQGTTVTVSS VL: DIQMTQSPSSLSASVGDRVTITCRASQDISKYLNWYQQKPGKAPKLLIYYTSSLHSGVPSRFSGSGSGTDYTLTISSLQPEDFATYYCQQGNRLPRTFGGGTKVEIKR | – | – | – | – | – | – | – | 0.442 | – | 0.114 | 29.5 | 8.52
H-AB-P1 (AB-PG1-XG1-006) (antibody, V domains shown) VH: QVQLVESGGGVVQPGRSLRLSCAASGFAFSRYGMHWVRQAPGKGLEWVAVIWYDGSNKYYADSVKGRFTISRDNSKNTQYLQMNSLRAEDTAVYYCARGGDFLYYYYYGMDVWGQGTTVTVSS VL: DIQMTQSPSSLSASVGDRVTITCRASQGISNYLAWYQQKTGKVPKFLIYEASTLQSGVPSRFSGGGSGTDFTLTISSLQPEDVATYYCQNYNSAPFTFGPGTKVDIK | – | – | – | – | – | – | 2.71 | – | – | – | – | –
